Test results published in the RNAGym collection of RNA variant scans (doi:10.7554/elife.90254).

B1: OR4K15 (parent)
chain: GUUAACGGUCAUAGGCCAUGGAAACUAGGAGCACCAUUUCGCUGCCAGUGAAGAAAUGAACAAAGAAAAUCUGGGCCAGGCAGGCAUCAAAAGAAAUAGUCUUGCGCUCAACCAGAAAGUCUGUAAUCAUUUUAAGGGUA

Variants of: B1
Assay: self-cleavage, relative activity (ratio to wild type); higher = more cleavage; in vitro, sequencing; the parent is a self-cleaving ribozyme

Row | Variant | self-cleavage
1 | GUUAACGGUCAUAGGCCAUGUAAACUAGGAGCACCAUUUCGCUGCCAGUGAAGAAAUGAACAAAGAAAAUCUGGGCCAGGCAGGCAUCAAAAGAAAUAGUCUUGCGCUCAACCAGAAGGUCUGUAAUCAUUUUAAGGGUA [G21U A118G] | 1.98
2 | GUUAACGGUCAUAGGCCAUGGGAACUAGGAGCACCAUUUCGCUGCCAGUGAAGAUAUGAACAAAGAAAAUCUGGGCCAGGCAGGCAUCAAAAGAAAUAGUCUUGCGCUCAACCAGAAAGUCUGUAAUCAUUUUAAGGGUA [A22G A55U] | 1.26
3 | GUUAACGGUCAUAGGCCAUGGGAACUAGGAGCACCAUUUCGCUGCCAGUGAAGAGAUGAACAAAGAAAAUCUGGGCCAGGCAGGCAUCAAAAGAAAUAGUCUUGCGCUCAACCAGAAAGUCUGUAAUCAUUUUAAGGGUA [A22G A55G] | 1.16
4 | GUUAACGGUCAUAGGCCAUGCAAACUAGGAGCACCAUUUCGCUGCCAGUGAAGAAAUGAACAAAGAAAAUCUGGGCCAGGCAGGCAUCAAAAGAAAUAGUCUUGCGCUCAACCAGAAAGUCUGUAGUCAUUUUAAGGGUA [G21C A126G] | 1.63
5 | GUUAACGGUCAUAGGCCAUGGGUACUAGGAGCACCAUUUCGCUGCCAGUGAAGAAAUGAACAAAGAAAAUCUGGGCCAGGCAGGCAUCAAAAGAAAUAGUCUUGCGCUCAACCAGAAAGUCUGUAAUCAUUUUAAGGGUA [A22G A23U] | 1.26
6 | GUUAACGGUCAUAGGCCAUGGGAACUAGGAGCACCAUUUCGCUGCCAGUGAAGAAAUGGACAAAGAAAAUCUGGGCCAGGCAGGCAUCAAAAGAAAUAGUCUUGCGCUCAACCAGAAAGUCUGUAAUCAUUUUAAGGGUA [A22G A59G] | 1.07
7 | GUUAACGGUCAUAGGCCAUGGGAACUAGGAGCACCAUUUCGCUGCCGGUGAAGAAAUGAACAAAGAAAAUCUGGGCCAGGCAGGCAUCAAAAGAAAUAGUCUUGCGCUCAACCAGAAAGUCUGUAAUCAUUUUAAGGGUA [A22G A47G] | 1.34
8 | GUUAACGGUCAUAGGCCAUGGGAACUAGGAGCACCAUUUCGCUGCCUGUGAAGAAAUGAACAAAGAAAAUCUGGGCCAGGCAGGCAUCAAAAGAAAUAGUCUUGCGCUCAACCAGAAAGUCUGUAAUCAUUUUAAGGGUA [A22G A47U] | 0.62
9 | GUUAACGGUCAUAGGCCAUGGCAACUAGGAGCACCAUUUCGCUGCCAGUGAAGAAAUGAACAAAGAAAAUCUGGGCCAGGCAGGCAUCAAAAGAAAUAGUCCUGCGCUCAACCAGAAAGUCUGUAAUCAUUUUAAGGGUA [A22C U102C] | 2.42
10 | GUUAACGGUCAUAGGCCAUGGGAACUAGGAGCACCGUUUCGCUGCCAGUGAAGAAAUGAACAAAGAAAAUCUGGGCCAGGCAGGCAUCAAAAGAAAUAGUCUUGCGCUCAACCAGAAAGUCUGUAAUCAUUUUAAGGGUA [A22G A36G] | 1.4
11 | GUUAACGGUCAUAGGCCAUGGCAACUAGGAGCACCAUUUCGCUGCCAGUGAAGAAAUGAACAAAGAAAAUCUGGGCCAGGCAGGCAUCAAAAGAAAUAGUCUUGCGCUCAACCUGAAAGUCUGUAAUCAUUUUAAGGGUA [A22C A114U] | 0.08
12 | GUUAACGGUCAUAGGCCAUGAAAACUAGGAGCACCAUUUCGCUGCCAGUGAAGAAAUGAACAAAGAAAAUCUGGGCCAGGCAGGCAUCAAAAGAAAUAGUCUUGCGCUCAACCAGAAAGUCUGUAAUCAUUAUAAGGGUA [G21A U132A] | 1.94
13 | GUUAACGGUCAUAGGCCAUGGGAACUAGGAGCACCAUUUCGCUGCCAGUGAAGUAAUGAACAAAGAAAAUCUGGGCCAGGCAGGCAUCAAAAGAAAUAGUCUUGCGCUCAACCAGAAAGUCUGUAAUCAUUUUAAGGGUA [A22G A54U] | 1.08
14 | GUUAACGGUCAUAGGCCAUGUAAACUAGGAGCACCAUUUCGCUGCCAGUGAAGAAAUGGACAAAGAAAAUCUGGGCCAGGCAGGCAUCAAAAGAAAUAGUCUUGCGCUCAACCAGAAAGUCUGUAAUCAUUUUAAGGGUA [G21U A59G] | 1.68
15 | GUUAACGGUCAUAGGCCAUGUAAACUAGGAGCACCACUUCGCUGCCAGUGAAGAAAUGAACAAAGAAAAUCUGGGCCAGGCAGGCAUCAAAAGAAAUAGUCUUGCGCUCAACCAGAAAGUCUGUAAUCAUUUUAAGGGUA [G21U U37C] | 1.85
16 | GUUAACGGUCAUAGGCCAUGGGAACUAGGGGCACCAUUUCGCUGCCAGUGAAGAAAUGAACAAAGAAAAUCUGGGCCAGGCAGGCAUCAAAAGAAAUAGUCUUGCGCUCAACCAGAAAGUCUGUAAUCAUUUUAAGGGUA [A22G A30G] | 0.99
17 | GUUAACGGUCAUAGGCCAUGGGAACUAGGUGCACCAUUUCGCUGCCAGUGAAGAAAUGAACAAAGAAAAUCUGGGCCAGGCAGGCAUCAAAAGAAAUAGUCUUGCGCUCAACCAGAAAGUCUGUAAUCAUUUUAAGGGUA [A22G A30U] | 1.9
18 | GUUAACGGUCAUAGGCCAUGGGACCUAGGAGCACCAUUUCGCUGCCAGUGAAGAAAUGAACAAAGAAAAUCUGGGCCAGGCAGGCAUCAAAAGAAAUAGUCUUGCGCUCAACCAGAAAGUCUGUAAUCAUUUUAAGGGUA [A22G A24C] | 0.56
19 | GUUAACGGUCAUAGGCCAUGCAAACUAGGAGCACCAUUUCGCUGCCAGUGAAGAAAUGAAUAAAGAAAAUCUGGGCCAGGCAGGCAUCAAAAGAAAUAGUCUUGCGCUCAACCAGAAAGUCUGUAAUCAUUUUAAGGGUA [G21C C61U] | 0.94
20 | GUUAACGGUCAUAGGCCAUGUAAACUAGGAGCACCAUUUCGCUGCCAGUGAGGAAAUGAACAAAGAAAAUCUGGGCCAGGCAGGCAUCAAAAGAAAUAGUCUUGCGCUCAACCAGAAAGUCUGUAAUCAUUUUAAGGGUA [G21U A52G] | 1.58
21 | GUUAACGGUCAUAGGCCAUGGGAACUAGGAGCACCAUUUCGCUGCCAGUGAGGAAAUGAACAAAGAAAAUCUGGGCCAGGCAGGCAUCAAAAGAAAUAGUCUUGCGCUCAACCAGAAAGUCUGUAAUCAUUUUAAGGGUA [A22G A52G] | 0.91

Row | Variant | self-cleavage
22 | GUUAACGGUCAUAGGCCAUGGCAACUAGGAGCACCAUUUCGCUGCCAGUGAAGAAAUGAACAAAGAAAAUCUGGGCCAGGCAGGCAUCAAAAGAAAUAGUCUUGCGCACAACCAGAAAGUCUGUAAUCAUUUUAAGGGUA [A22C U108A] | 0.02
23 | GUUAACGGUCAUAGGCCAUGCAAACUAGGAGCACCAUUUCGCUGCCAGUGAAGAAAUGAACAAAGAAAAUCUGGGCCAGGCAGGCAUCAAAAGAAAUAGUCCUGCGCUCAACCAGAAAGUCUGUAAUCAUUUUAAGGGUA [G21C U102C] | 2.26
24 | GUUAACGGUCAUAGGCCAUGGGAACUUGGAGCACCAUUUCGCUGCCAGUGAAGAAAUGAACAAAGAAAAUCUGGGCCAGGCAGGCAUCAAAAGAAAUAGUCUUGCGCUCAACCAGAAAGUCUGUAAUCAUUUUAAGGGUA [A22G A27U] | 1.2
25 | GUUAACGGUCAUAGGCCAUGCAAACUAGGAGCACCAUUUCGCUGCCAGUGAAGAAAUGAACAAAGAAGAUCUGGGCCAGGCAGGCAUCAAAAGAAAUAGUCUUGCGCUCAACCAGAAAGUCUGUAAUCAUUUUAAGGGUA [G21C A68G] | 2.19
26 | GUUAACGGUCAUAGGCCAUGGGAACUAGGAGCACCAUUUCGCUGCCAGUGAAGAAAUGAACGAAGAAAAUCUGGGCCAGGCAGGCAUCAAAAGAAAUAGUCUUGCGCUCAACCAGAAAGUCUGUAAUCAUUUUAAGGGUA [A22G A62G] | 1.12
27 | GUUAACGGUCAUAGGCCAUGUAAACUAGGAGCACCAUUUCGCUGCCAGUGAAGAAAUGAACAAAGAAAAUCAGGGCCAGGCAGGCAUCAAAAGAAAUAGUCUUGCGCUCAACCAGAAAGUCUGUAAUCAUUUUAAGGGUA [G21U U72A] | 0.4
28 | GUUAACGGUCAUAGGCCAUGCAAACUAGGAGCACCAUUUCGCUGCCAGUGAAGAAAUGAACAAAGAAAAUCUGGGCCAGGCAGGCAUCAAAAGAAAUAGUCUUGCGCUCAACCAGAAAGUCUGUAAUCAUUUUAAGGGUA [G21C] | 0.85
29 | GUUAACGGUCAUAGGCCAUGUAAACUAGGAGCACCAUUUCGCUGCCAGUGAAGAAAUGAACAAAGAAAAUCUGGGCCAGGCAGGCAUCAAAAGAAAUAGUCUUGCGCUCAACCAGAAAGUCUGUAAUCAUUUUAAGGGUA [G21U] | 1.51
30 | GUUAACGGUCAUAGGCCAUGGGAACUAGGAGCACCAUUUCGCUGCCAGUGAAGAAAUGAACAGAGAAAAUCUGGGCCAGGCAGGCAUCAAAAGAAAUAGUCUUGCGCUCAACCAGAAAGUCUGUAAUCAUUUUAAGGGUA [A22G A63G] | 1.72
31 | GUUAACGGUCAUAGGCCAUGGGAACUAGGAGCACCAUUUCGCUGCCAGUGAAGAAAUGAACACAGAAAAUCUGGGCCAGGCAGGCAUCAAAAGAAAUAGUCUUGCGCUCAACCAGAAAGUCUGUAAUCAUUUUAAGGGUA [A22G A63C] | 1.25
32 | GUUAACGGUCAUAGGCCAUGGGAACUAGGAGCCCCAUUUCGCUGCCAGUGAAGAAAUGAACAAAGAAAAUCUGGGCCAGGCAGGCAUCAAAAGAAAUAGUCUUGCGCUCAACCAGAAAGUCUGUAAUCAUUUUAAGGGUA [A22G A33C] | 0.57
33 | GUUAACGGUCAUAGGCCAUGGCAACUAGGAGCACCAUUUCGCUGCCAGUGAAGAAAUGAACAAAGAAAAUCUGGGCCAGGCAGGCAUCAAAAGAAAUAGUCUUGCGCUCAACCAGAAAGUCUGUAAUCAUUUUAAGGGCA [A22C U139C] | 0.51
34 | GUUAACGGUCAUAGGCCAUGGGAACUAGGAGCACCAUUUCGCUGCCAGUGUAGAAAUGAACAAAGAAAAUCUGGGCCAGGCAGGCAUCAAAAGAAAUAGUCUUGCGCUCAACCAGAAAGUCUGUAAUCAUUUUAAGGGUA [A22G A51U] | 1.24
35 | GUUAACGGUCAUAGGCCAUGGGAACUAGGAGCACCAUUUCGCUGCCAGUGAAGAAAUGAUCAAAGAAAAUCUGGGCCAGGCAGGCAUCAAAAGAAAUAGUCUUGCGCUCAACCAGAAAGUCUGUAAUCAUUUUAAGGGUA [A22G A60U] | 0.77
36 | GUUAACGGUCAUAGGCCAUGGCAACUAGGAGCACCAUUUCGCUGCCAGUGAAGAAAUGAACAAAGAAAUUCUGGGCCAGGCAGGCAUCAAAAGAAAUAGUCUUGCGCUCAACCAGAAAGUCUGUAAUCAUUUUAAGGGUA [A22C A69U] | 1.74
37 | GUUAACGGUCAUAGGCCAUGUAAACUAGGAGCACCAUUUCGCUGCCAGUGAAGAAAUGAACAAAGAAAAUCUGGGCCAGGCAGGCAUCAAAAGAAAUAGUCUUGCGCACAACCAGAAAGUCUGUAAUCAUUUUAAGGGUA [G21U U108A] | 0.02
38 | GUUAACGGUCAUAGGCCAUGUAAACUAGGAGCACCAUUUCGCUGCCAGUGAAGAAAUGAACAAAGAAAAUCUGGGCCAGGCAGGCAACAAAAGAAAUAGUCUUGCGCUCAACCAGAAAGUCUGUAAUCAUUUUAAGGGUA [G21U U87A] | 1.31
39 | GUUAACGGUCAUAGGCCAUGGCAACUAGGGGCACCAUUUCGCUGCCAGUGAAGAAAUGAACAAAGAAAAUCUGGGCCAGGCAGGCAUCAAAAGAAAUAGUCUUGCGCUCAACCAGAAAGUCUGUAAUCAUUUUAAGGGUA [A22C A30G] | 1
40 | GUUAACGGUCAUAGGCCAUGCAAACUAGGAGCACCAUUUCGCUGCCAGUGAAGAAAUGAACAAAGAAAAUCUGGGCCGGGCAGGCAUCAAAAGAAAUAGUCUUGCGCUCAACCAGAAAGUCUGUAAUCAUUUUAAGGGUA [G21C A78G] | 0.27
41 | GUUAACGGUCAUAGGCCAUGCAAACUAGGAGCACCAUUUCGCUGCCAGUGAAGAAAUGAACAAAGAAAAUCUGGGCCAGGCAGGCAUCAAAAGAAAUAGUCUUGCGCUCAACCAGAAGGUCUGUAAUCAUUUUAAGGGUA [G21C A118G] | 1.14
